Experimental findings from US7026443 are described below.

Where two headings read alike, the source gives them in different places.

In experiment [1] the target is HLA-A*1101 (purified HLA class I molecule) (human).
Experiment [2] deals with HLA-A*0101 (human). Briefly: competition with 125I-labelled standard peptide 944.02 ([..]) for purified HLA-A*0101, gel filtration.
Experiment [3] has as its target HLA-A*1101 (human). Briefly: competition with 125I-labelled standard probe peptide for purified HLA-A*1101, gel filtration.
For experiment [4], the target named is HLA-A*0101 (human). Briefly: competition with 125I-labelled standard peptide for purified HLA-A*0101, gel filtration.
Experiment [5] has as its target HLA-B*5101 (human). Briefly: competition with 125I-labelled standard peptide for purified HLA, gel filtration. On the technique in general: SEC sorts molecules by how far they enter the pores of the column.
Experiment [6] addresses HLA-B*3501 (human). The description is as above.
Experiment [7] deals with HLA-B*5401 (human). The description is as above.
Experiment [8] addresses HLA-B*5301 (human). The experiment is described as above.
In experiment [9] the target is HLA-B*0702 (human). The description is as above.
Experiment [10] has as its target HLA-A*0301 (human). The experiment can be described thus: competitive inhibition of 125I-labelled standard peptide binding to purified HLA-A*0301, gel filtration. The conditions noted are these: remark: other sources report otherwise.
Experiment [11] deals with HLA-B*5101 (human). The experiment can be described thus: competition with 125I-labeled standard probe peptide for purified HLA, gel filtration.
In experiment [12] the target is HLA-B*3501 (human). The description is as above.
Experiment [13] addresses HLA-B*5301 (human). The experiment is described as above.
The target in experiment [14] is HLA-B*0702 (human). The experiment is described as above.
The target in experiment [15] is HLA-A*1101 (human). The experiment can be described thus: competition with 125I-labelled standard peptide for purified HLA-A*1101, gel filtration.
Experiment [16] concerns the target HLA-B*0702 (human). The experiment can be described thus: competition with 125I-labeled standard peptide for purified HLA, gel filtration.
Where [17] appears, read: remark: other sources report otherwise.

As for SVYGDTLEK (modifications not checked) [HPV18 E6 84-92 peptide …], the relative binding ratio (IC50 of standard peptide / IC50 of test peptide) in experiment [1] is 0.23.
For the molecule CIVYRDGNPY (modifications not checked) [HPV16 E6 58 …], the binding affinity ratio (IC50 of standard peptide / IC50 of test peptide) in experiment [2] was determined as 0.0015.
Regarding LTEVFEFAFK (modifications not checked) [HPV18 E6 41-50 peptide …], the relative binding ratio (IC50 of standard peptide / IC50 of test peptide) in experiment [1] is 0.036.
On the same count and under the same terms, as for NTGLYNLLIR (modifications not checked) [HPV18 E6 95-104 peptide …], the figure is 0.0013.
On the same count and under the same terms, the value for RFHNIAGHYR (modifications not checked) [HPV18 E6 126-135 peptide …] was 0.0057.
On the same count and under the same terms, as for RFHNIAGHY (modifications not checked) [HPV18 E6 126-134 peptide …], the figure is 0.0002.
As for LTTNIHPAK (modifications not checked) [HPV18 E1 571 …], the binding affinity ratio (IC50 of standard peptide / IC50 of test peptide) in experiment [3] was 0.12.
As to DTPTLHEY (modifications not checked) [DTPTLHEY (HPV16 E7, position 4, 8 amino acids)], in experiment [4], the relative binding ratio (IC50 of standard peptide / IC50 of test peptide) was found to be 0.0002.
For VVYRDSIPH (modifications not checked) [HPV18 E6 54-62 peptide …], the relative binding ratio (IC50 of standard peptide / IC50 of test peptide) in experiment [1] worked out at 0.38.
For KPLNPAEKL (modifications not checked) [HPV18 E6 peptide … (position 110, 9 amino acids)], the binding affinity ratio (IC50 of standard peptide / IC50 of test peptide) stood at 0.0001 in experiment [5]; 0.0001 in [6]; 0.0002 in experiment [7]; 0.0001 in experiment [8]; 0.035 in experiment [9].
For AVCDKCLKFY (modifications not checked) [HPV16 E6 68 …], the binding affinity ratio (IC50 of standard peptide / IC50 of test peptide) in experiment [2] stood at 0.0095.
For PPKLRSTAA (modifications not checked) [HPV31 E1 289 peptide … (B07 supermotif peptide)], in [9], the binding affinity ratio (IC50 of standard peptide / IC50 of test peptide) amounted to 0.0014.
Regarding QPETTDLY (modifications not checked) [QPETTDLY (HPV16 E7, position 16, 8 amino acids)], the relative binding ratio (IC50 of standard peptide / IC50 of test peptide) in experiment [4] was determined as 0.001.
On to DLQPETTDLY (modifications not checked) [HPV16 E7 14 …], for which the binding affinity ratio (IC50 of standard peptide / IC50 of test peptide) in experiment [2] (setting [17]) is 0.002. The relative binding ratio (IC50 of standard peptide / IC50 of test peptide) (ratio to standard peptide) in experiment [10] was found to be 0.0002.
Take TGLYNLLIR (modifications not checked) [HPV18 E6 96-104 peptide …]: the relative binding ratio (IC50 of standard peptide / IC50 of test peptide) in [1] amounted to 0.0002.
In the case of GPKATLQDIV (modifications not checked) [HPV18 E7 peptide … (position 3, 10 amino acids)], the binding affinity ratio (IC50 of standard peptide / IC50 of test peptide) in experiment [5], in experiment [6], in experiment [7], in experiment [8] and in experiment [9] was 0.0001 in each case.
Consider EGTGCNGWFY (modifications not checked) [HPV18 E1 10-19 peptide …], for which the relative binding ratio (IC50 of standard peptide / IC50 of test peptide) in experiment [3] was 0.0002.
For the molecule LILALLRYK (modifications not checked) [HPV18 E1 281 …], the binding affinity ratio (IC50 of standard peptide / IC50 of test peptide) in experiment [3] stood at 0.18.
As to IPHAACHKCI (modifications not checked) [HPV18 E6 peptide … (position 60, 10 amino acids)], the binding affinity ratio (IC50 of standard peptide / IC50 of test peptide) turned out to be 0.0046 in experiment [5]; 0.0001 in [6]; 0.0005 in experiment [7]; 0.0001 in experiment [8]; 0.0065 in experiment [9].
As for NSGQKKAKR (modifications not checked) [HPV18 E1 119 …], the binding affinity ratio (IC50 of standard peptide / IC50 of test peptide) in experiment [3] stood at 0.0002.
With SPRLQEISL (modifications not checked) [HPV18 E1 110 peptide …], the binding affinity ratio (IC50 of standard peptide / IC50 of test peptide) in experiment [11] came to 0.0005; in experiment [12], 0.0008; in experiment [13] it was 0.0002; in experiment [14], 0.62.
GTTLEQQY (modifications not checked) [GTTLEQQY (HPV16 E6, position 92, 8 amino acids)]: in [4], the relative binding ratio (IC50 of standard peptide / IC50 of test peptide) is 0.0006.
As to VCDKCLKFY (modifications not checked) [… (HPV16 E6, position 69, 9 amino acids)], the relative binding ratio (IC50 of standard peptide / IC50 of test peptide) amounted to 0.0017 in experiment [4] and 0.0002 in experiment [15].
Consider EPQNEIPVDL (modifications not checked) [HPV18 E7 peptide … (position 16, 10 amino acids)], for which the binding affinity ratio (IC50 of standard peptide / IC50 of test peptide) in experiment [5] turned out to be 0.0001; in [6], 0.0005; in [7] it was 0.0001; in experiment [8], 0.0001; in experiment [9], 0.0001.
In the case of HGDTPTLHEY (modifications not checked) [… (HPV16 E7, position 2, 10 amino acids)], the relative binding ratio (IC50 of standard peptide / IC50 of test peptide) in [4] (setting [17]) is 0.003; in experiment [15] (setting [17]) it was 0.0001.
As to DTPTLHEY (modifications not checked) [HPV16 E7 4 DTPTLHEY], the binding affinity ratio (IC50 of standard peptide / IC50 of test peptide) in experiment [2] was 0.0002.
As to DPTRRPYKL (modifications not checked) [HPV18 E6 peptide … (position 6, 9 amino acids)], the binding affinity ratio (IC50 of standard peptide / IC50 of test peptide) in [5] is 0.0001; in [6] it was 0.0001; in experiment [7], 0.0002; in [8], 0.0001; in experiment [9] it was 0.0001.
For the molecule GPKATLQDI (modifications not checked) [HPV18 E7 peptide … (position 3, 9 amino acids)], the binding affinity ratio (IC50 of standard peptide / IC50 of test peptide) in experiment [5] turned out to be 0.0001; in [6] it was 0.0001; in experiment [7], 0.0002; in [8], 0.0001.
Regarding QAEPDRAHY (modifications not checked) [… (HPV16 E7, position 44, 9 amino acids)], the relative binding ratio (IC50 of standard peptide / IC50 of test peptide) in experiment [4] was 0.021; in experiment [15], 0.0002.
With GTTLEQQY (modifications not checked) [HPV16 E6 92 GTTLEQQY], the binding affinity ratio (IC50 of standard peptide / IC50 of test peptide) in experiment [2] came out at 0.0006.
NPAEKLRHL (modifications not checked) [HPV18 E6 peptide … (position 113, 9 amino acids)]: the binding affinity ratio (IC50 of standard peptide / IC50 of test peptide) amounted to 0.0001 in experiment [5]; 0.0001 in experiment [6]; 0.0002 in experiment [7]; 0.0001 in experiment [8]; 0.011 in experiment [9].
As for LPQLCTEL (modifications not checked) [HPV16 E6 19 LPQLCTEL], the binding affinity ratio (IC50 of standard peptide / IC50 of test peptide) in [16] worked out at 0.0055.
For ETTDLYCY (modifications not checked) [ETTDLYCY (HPV16 E7, position 18, 8 amino acids)], the relative binding ratio (IC50 of standard peptide / IC50 of test peptide) in experiment [4] (setting [17]) came to 0.078; in experiment [15] (setting [17]), 0.0001.
With EPQRHTMLCM (modifications not checked) [HPV18 E7 peptide … (position 55, 10 amino acids)], the binding affinity ratio (IC50 of standard peptide / IC50 of test peptide) amounted to 0.0003 in [5]; 0.0002 in experiment [6]; 0.0001 in experiment [7]; 0.0043 in experiment [8]; 0.0026 in experiment [9].
As for PPKLRSTAA (modifications not checked) [HPV16 E1 309 …], the binding affinity ratio (IC50 of standard peptide / IC50 of test peptide) in experiment [16] worked out at 0.0014.
With NIHPAKDNR (modifications not checked) [HPV18 E1 574 …], the binding affinity ratio (IC50 of standard peptide / IC50 of test peptide) in experiment [3] is 0.0002.
